Series [1] deals with T1, PSB‐I^143–238 construct (peptide‐substrate–binding domain of the α‐I subunit of human collagen prolyl … (human, UniProt P13674 160-255)).
T1 construct: numbers count on: the mature protein (α-I subunit after cleavage of the signal peptide); Monomer by SEC-MALS; also called PSB‐I construct; PSB‐I domain; source: E. coli Rosetta(DE3)pLysS, pET22b(+), purified (Ni‐NTA, Superdex75 SEC); not shown: Leu-Glu-His6, C-terminal, kept
The experiment in a line: ITC; 3 mM peptide titrated into 50 μM PSB‐I^143–238 in the cell; 20 mM Bis‐Tris, 100 mM glycine, pH 6.8; 25°C; one‐set‐of‐sites model with fixed stoichiometry (n = 1); three measurements. The conditions noted are these: both partners purified.

Series [2] deals with the molecule itself. The experiment in a line: crystal structure; PSB‐I^144–244 crystallized without peptide, hanging drop, 4°C; 1 M sodium citrate, 0.1 M CHES, pH 9.5; contact between crystallographically related chains.

T1 sequence (P13674 160-255): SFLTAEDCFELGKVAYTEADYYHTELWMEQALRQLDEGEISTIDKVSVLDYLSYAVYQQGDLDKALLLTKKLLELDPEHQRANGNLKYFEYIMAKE

B1: PPG‐PPG‐PPG peptide (peptide)
peptide: PPGPPGPPG
notes: collagen-like model peptide, 9 residues, free amino and free carboxylate ends; also called (PPG)3; source: synthetic peptide; bought: TAG Copenhagen A/S
Take B1: in series [1], the Kd stood at 309 µM and the dH is -13.6 kcal/mol.

B2: PPG‐PEG‐PPG peptide (peptide)
peptide: PPGPEGPPG
notes: collagen-like model peptide, 9 residues, free amino and free carboxylate ends; also called PxGP‐peptide; source: synthetic peptide; bought: TAG Copenhagen A/S
With B2, in series [1], the Kd is 84.3 µM and the dH is -13.2 kcal/mol.

B3: PPG‐PRG‐PPG peptide (peptide)
peptide: PPGPRGPPG
notes: as for B2
B3: in series [1], the affinity, expressed as Kd, was 37 µM and the dH was -14.9 kcal/mol.

B4: PPG‐PAG‐PPG peptide (peptide)
peptide: PPGPAGPPG
notes: as for B2
In series [1], B4 had a Kd of 91.3 µM and a dH of -12.4 kcal/mol.

B5: (Pro)9 peptide (peptide)
peptide: PPPPPPPPP
notes: polyproline peptide of 9 residues, free amino and free carboxylate ends; printed as (Pro)9; also called P9; source: synthetic peptide; bought: TAG Copenhagen A/S
On to B5, for which, in series [1], the affinity, expressed as Kd, was 80.9 µM and the dH is -9.5 kcal/mol.

B6: PSB‐I^144–244 construct (longer PSB‐I construct of human C‐P4H‐I α‐subunit) (domain or fragment)
chain: FLTAEDCFELGKVAYTEADYYHTELWMEQALRQLDEGEISTIDKVSVLDYLSYAVYQQGDLDKALLLTKKLLELDPEHQRANGNLKYFEYIMAKEKDVNKSLEHHHHHH
notes: numbers count on: the mature protein (α-I subunit after cleavage of the signal peptide); C-terminal Leu-Glu-(His)6 tag; The C-terminal Leu-Glu-His6 tag is kept and is written as a part, not under tags; also called longer PSB‐I^144–244 variant
B6: the binding result in series [2] is reported as “binds”.

Values taken from article PMC12433258, “Binding Differences of the Peptide‐Substrate–Binding Domain of Collagen Prolyl 4‐Hydroxylases I and II for Proline‐ and Hydroxyproline‐Rich Peptides” (Proteins, 2025).
